This is an account of results in article doi:10.1101/2022.12.03.518949 (bioRxiv, 2022).

This assay concerns the target His-tagged SARS-CoV-2 RBD (SARS-CoV-2 Wuhan-Hu-1, UniProt P0DTC2). The assay can be described thus: BLI.

B1: Fab fragment of THSC20.HVTR26 (Fab, V domains shown)
VH: EVQLVESGGGLVQPGGSLRLSCAASGFTVSSNYMSWVRQAPGKGLEWVSAIYSGDSTYYADSVKGRFTISRHNPKNTLYLQMNSLRAEDTAVYYCARLVGALTNIVVSGDGGAFDIWGQGTMVTVSS
VL: SYELTQPASVSGSPGQSITISCTGTSSDVGSYNLVSWYQQHPGKAPKLMIYEVSKRPSGVSNRFSGSKSGNTASLTISGLQAEDEVDYYCCSYAGSSTWVFGGGTKLTVL
Consider B1, for which the binding result is on record as “binds”.
